This is an account of results in the Immune Epitope Database (IEDB).

The target in assay [1] is HLA-A*24:02. In words: IEDB peptide-MHC binding, purified MHC/direct/fluorescence; filed as Kd, often an IC50 or EC50 that approximates it; ≥ and ≤ were set here for values at or beyond the usual limits of such assays. The note with it: source organism: Orthohantavirus hantanense.
Assay [2] concerns the target HLA-A*24:03. Described as above.
Assay [3] concerns the target HLA-A*32:07. In words: IEDB peptide-MHC binding, purified MHC/competitive/fluorescence; filed as Kd, often an IC50 or EC50 that approximates it; ≥ and ≤ were set here for values at or beyond the usual limits of such assays. The note with it: source organism: Hantaan virus 76-118.
The target in assay [4] is HLA-B*83:01. The assay is described as above. The note with it: source organism: Hantaan virus 76-118.
Assay [5] addresses HLA-B*15:42. The assay is described as above. The note with it: source organism: Hantaan virus 76-118.
The target of assay [6] is HLA-B*45:06. Described as above. The following applies: source organism: Hantaan virus 76-118.
For assay [7], the target named is HLA-C*04:01. The description is as above. The following applies: source organism: Hantaan virus 76-118.
The target of assay [8] is HLA-A*02:03. Described as above. The following applies: source organism: Human immunodeficiency virus 1.
In assay [9] the target is HLA-A*26:02. The description is as above.
Assay [10] concerns the target HLA-A*68:02. The description is as above.
Assay [11] has as its target HLA-A*02:06. The assay is described as above.
Assay [12] concerns the target HLA-A*02:01. The description is as above. The following applies: source organism: Human immunodeficiency virus 1.
Assay [13] concerns the target HLA-A*26:01. Description: IEDB peptide-MHC binding, purified MHC/direct/fluorescence; filed as Kd, often an IC50 or EC50 that approximates it; ≥ and ≤ were set here for values at or beyond the usual limits of such assays.
In assay [14] the target is HLA-A*11:01. The description is as above.
Assay [15] has as its target HLA-A*31:01. The assay is described as above.
Assay [16] has as its target HLA-B*57:01. The description is as above.
The target in assay [17] is HLA-A*26:03. Described as above.
Assay [18] concerns the target HLA-B*08:02. The assay is described as above. The following applies: source organism: Variola virus.
The target of assay [19] is HLA-A*01:01. The description is as above.
Assay [20] deals with HLA-B*07:02. The description is as above.
In assay [21] the target is HLA-B*58:01. The description is as above.
The target of assay [22] is HLA-A*69:01. The description is as above. The following applies: source organism: Camelpox virus M-96.
Assay [23] addresses HLA-A*02:01. The assay is described as above.
Assay [24] deals with HLA-B*15:17. Described as above. The note with it: source organism: Camelpox virus M-96.
The target in assay [25] is HLA-B*39:01. Description: IEDB peptide-MHC binding, purified MHC/competitive/fluorescence; filed as Kd, often an IC50 or EC50 that approximates it; ≥ and ≤ were set here for values at or beyond the usual limits of such assays. The note with it: source organism: Vaccinia virus WR.
Assay [26] has as its target HLA-B*18:01. The assay is described as above. The following applies: source organism: Vaccinia virus WR.
Assay [27] concerns the target HLA-B*15:01. Described as above. The following applies: source organism: Vaccinia virus WR.
In assay [28] the target is HLA-B*08:01. Described as above. The following applies: source organism: Vaccinia virus WR.
Assay [29] deals with HLA-B*46:01. Description: IEDB peptide-MHC binding, purified MHC/direct/fluorescence; filed as Kd, often an IC50 or EC50 that approximates it; ≥ and ≤ were set here for values at or beyond the usual limits of such assays. The note with it: source organism: Brucella abortus.
The target of assay [30] is HLA-B*27:05. The description is as above. The following applies: source organism: Brucella abortus.
The target of assay [31] is HLA-A*68:02. The description is as above. The note with it: source organism: Brucella abortus.
In assay [32] the target is HLA-B*15:01. The assay is described as above. The following applies: source organism: Brucella abortus.
The target in assay [33] is HLA-B*40:01. The description is as above. The following applies: source organism: Brucella abortus.
The target in assay [34] is HLA-A*03:01. Described as above. The note with it: source organism: Brucella abortus.
For assay [35], the target named is HLA-B*48:01. The description is as above. The note with it: source organism: Brucella abortus.
The target in assay [36] is HLA-B*15:17. Description: IEDB peptide-MHC binding, purified MHC/competitive/fluorescence; filed as Kd, often an IC50 or EC50 that approximates it; ≥ and ≤ were set here for values at or beyond the usual limits of such assays. The following applies: source organism: Brucella abortus S19.
For assay [37], the target named is HLA-A*26:02. In words: IEDB peptide-MHC binding, purified MHC/direct/fluorescence; filed as Kd, often an IC50 or EC50 that approximates it; ≥ and ≤ were set here for values at or beyond the usual limits of such assays.
Assay [38] has as its target HLA-A*80:01. Described as above. The note with it: source organism: West Nile virus.
Assay [39] deals with HLA-C*03:03. The description is as above. The note with it: source organism: Mycobacterium tuberculosis C.
For assay [40], the target named is HLA-C*07:02. The description is as above. The following applies: source organism: Mycobacterium tuberculosis C.
For assay [41], the target named is HLA-B*46:01. In words: IEDB peptide-MHC binding, purified MHC/competitive/fluorescence; filed as Kd, often an IC50 or EC50 that approximates it; ≥ and ≤ were set here for values at or beyond the usual limits of such assays. The following applies: source organism: Mycobacterium tuberculosis C.
[42] abbreviates: source organism: Human immunodeficiency virus 1.
Setting [43] is: source organism: Camelpox virus M-96.
The mark [44] stands for this setting: source organism: Vaccinia virus WR.
[45] abbreviates: source organism: Brucella abortus.
Where [46] appears, read: source organism: West Nile virus.

pKd: −log10 of the molar value. A value given as a limit tells only on which side of the number the result lay.

The pKd is the Kd on a negative log10 scale, so that one unit is a factor of ten. Read a high pKd as a small Kd. Consider RYRTAVCGL, for which the pKd in assay [1] is 7.62; in assay [2] (source organism: Orthohantavirus hantanense), 8.17; in assay [3], 8.12; in assay [4], not above 5.30; in assay [5], not above 5.30; in assay [6], not above 5.30. In addition, the pKd in [7] was not above 5.30.
Turning to EELKSLFNTV, the negative-log Kd (pKd) in assay [8] was not above 4.70; in [9] (setting [42]), 5.97; in [10] (setting [42]), 6.49; in assay [11] (setting [42]), 6.29; in assay [12], 5.78.
In the case of EYYFRNEVF, the pKd was not above 4.70 in assay [13] (source organism: Variola virus); not above 4.70 in [14] (setting [43]); 6.71 in [2] (setting [43]); not above 4.70 in [15] (setting [43]); not above 4.70 in assay [16] (setting [43]); not above 4.70 in assay [17] (source organism: Variola virus). In addition, the pKd in assay [18], in [19] (setting [43]), in [20] (setting [43]), in assay [21] (setting [43]), in [22] and in assay [23] (setting [43]) was not above 4.70 throughout. Moreover, the pKd in [24] was not above 4.70; in assay [25] it was not above 4.70; in assay [26], 8.11; in [9] (setting [44]), 5.46; in [10] (setting [44]) it was 5.47; in [27], 5.36. For the same sequence, the pKd in assay [28] is not above 4.70; in assay [11] (setting [44]) it was 6.81.
For RFRCVGPAP, the pKd in [29], in assay [14] (setting [45]), in [30], in assay [31], in assay [15] (setting [45]) and in assay [32] was not above 4.70 throughout. Moreover, the pKd in assay [16] (setting [45]), in assay [17] (source organism: Brucella suis 1330), in [33], in [19] (setting [45]), in assay [20] (setting [45]) and in [34] was not above 4.70 each time. Moreover, the pKd in [21] (setting [45]), in assay [35], in assay [23] (setting [45]), in assay [9] (source organism: Brucella abortus S19) and in assay [36] was not above 4.70 each time.
In the case of LTKEEFTRY, the pKd was 5.97 in [13] (setting [46]), 6.55 in [37] (setting [46]), 6.26 in assay [38] and 5.94 in [19] (setting [46]).
For the sequence YVFYDGPPF, the pKd was 8.00 in assay [39], 7.68 in [40], 7.96 in assay [37] (source organism: Mycobacterium tuberculosis str. Haarlem) and 6.90 in assay [41].
